Results taken from article PMC5571939.

What was measured:
HL-Munc18c (mouse) = HL-Munc18c (mouse) (UniProt Q60770); experiment: BLI; HL-Munc18c immobilised on Ni-NTA biosensors; de-tagged Sx4 constructs 25–400 nM in solution; BLItz; 1:1 fit
[1] = target: Alexa488-labeled VAMP2 E78C (GST-cleaved) (rat) (UniProt P63045); experiment: fluorescence polarisation; SNARE complex formation by fluorescence anisotropy, all in solution: 700 nM SNAP23, 100 nM Alexa488-labeled VAMP2, 700 nM Sx4 variant, in the presence of 500 nM HMunc18c; 25°C; 25 mM HEPES pH 8.0, 200 mM NaCl, 1 mM TCEP, 2% glycerol
Chain of Alexa488-labeled VAMP2 E78C (GST-cleaved) (rat) (P63045 1-96 E78C): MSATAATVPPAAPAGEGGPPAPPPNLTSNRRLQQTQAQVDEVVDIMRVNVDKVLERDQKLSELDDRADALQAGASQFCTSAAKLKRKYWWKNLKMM

[2] = target: Alexa488-labeled VAMP2 E78C (GST-cleaved) (rat) (UniProt P63045); experiment: fluorescence polarisation; SNARE complex formation by fluorescence anisotropy, all in solution: 700 nM SNAP23, 100 nM Alexa488-labeled VAMP2, 700 nM Sx4 variant, no Munc18c; 25°C; 25 mM HEPES pH 8.0, 200 mM NaCl, 1 mM TCEP, 2% glycerol

Chain of HL-Munc18c (mouse) (Q60770 whole entry): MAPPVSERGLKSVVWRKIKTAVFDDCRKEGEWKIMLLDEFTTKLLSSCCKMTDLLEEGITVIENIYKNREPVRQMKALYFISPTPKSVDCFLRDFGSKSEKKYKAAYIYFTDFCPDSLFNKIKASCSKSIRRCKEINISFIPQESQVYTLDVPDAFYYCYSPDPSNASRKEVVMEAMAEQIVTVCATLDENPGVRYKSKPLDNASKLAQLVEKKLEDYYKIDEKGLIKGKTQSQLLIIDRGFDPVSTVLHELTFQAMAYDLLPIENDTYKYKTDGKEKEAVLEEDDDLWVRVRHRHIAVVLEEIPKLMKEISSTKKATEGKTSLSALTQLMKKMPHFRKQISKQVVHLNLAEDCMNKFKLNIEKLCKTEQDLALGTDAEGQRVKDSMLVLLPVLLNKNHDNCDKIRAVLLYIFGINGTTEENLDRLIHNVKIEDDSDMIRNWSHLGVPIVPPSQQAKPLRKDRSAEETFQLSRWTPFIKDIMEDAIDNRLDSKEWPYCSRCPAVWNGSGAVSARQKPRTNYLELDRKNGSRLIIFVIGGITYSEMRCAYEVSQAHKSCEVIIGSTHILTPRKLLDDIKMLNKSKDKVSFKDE

| Kd (HL-Munc18c (mouse)) | koff (HL-Munc18c (mouse)) | kon (HL-Munc18c (mouse)) | kobs of SNARE complex formation with m13 [1] | kobs of SNARE complex formation with m13 [2] | Substance |
| --- | --- | --- | --- | --- | --- |
| 72 nM | 0.022 s⁻¹ | 300000 M⁻¹ s⁻¹ | – | – | Sx4_(1-275) (de-tagged) (from UniProt Q08850 1-275) (domain or fragment) |
| 31 nM | 0.009 s⁻¹ | 290000 M⁻¹ s⁻¹ | – | – | Sx4_(1-275)-T4L (de-tagged) (from UniProt Q08850 1-275; P00720 1-164) |
| – | – | – | 0.00048 s⁻¹ | 0.00049 s⁻¹ | Sx4_(30-275)-His (from UniProt Q08850 30-275) (domain or fragment) |
| – | – | – | 0.0005 s⁻¹ | 0.00048 s⁻¹ | Sx4_(30-275)-T4L-His (from UniProt Q08850 30-275; P00720 1-164) |
